Test results as given in the Immune Epitope Database (IEDB).
pIC50, pKd: −log10 of the molar value.

Tests used:
HLA-A*30:01 = experiment: IEDB peptide-MHC binding, purified MHC/competitive/radioactivity; filed as Kd, often an IC50 or EC50 that approximates it; ≥ and ≤ were set here for values at or beyond the usual limits of such assays
HLA-A*02:01 [1] = experiment: IEDB peptide-MHC binding, purified MHC/competitive/fluorescence; ≥ and ≤ were set here for values at or beyond the usual limits of such assays
HLA-A*24:02 [2] = experiment: as above
HLA-B*51:01 [3] = experiment: IEDB peptide-MHC binding, purified MHC/competitive/radioactivity; filed as Kd, often an IC50 or EC50 that approximates it; ≥ and ≤ were set here for values at or beyond the usual limits of such assays
HLA-A*30:02 = experiment: as above; details: source organism: Dengue virus 3 Martinique/1243/1999
HLA-B*35:01 = experiment: as above
HLA-B*53:01 = experiment: as above
HLA-A*02:01 [4] = experiment: IEDB peptide-MHC binding, purified MHC/competitive/fluorescence; filed as Kd, often an IC50 or EC50 that approximates it; ≥ and ≤ were set here for values at or beyond the usual limits of such assays
HLA-A*01:01 [5] = experiment: IEDB peptide-MHC binding, purified MHC/direct/fluorescence; filed as Kd, often an IC50 or EC50 that approximates it; ≥ and ≤ were set here for values at or beyond the usual limits of such assays; details: source organism: Orthohantavirus hantanense
HLA-A*68:01 = experiment: IEDB peptide-MHC binding, purified MHC/competitive/radioactivity; filed as Kd, often an IC50 or EC50 that approximates it; ≥ and ≤ were set here for values at or beyond the usual limits of such assays; details: source organism: Dengue virus 2 Jamaica/1409/1983
HLA-A*33:01 = experiment: as above; details: source organism: Dengue virus 2 Jamaica/1409/1983
HLA-B*51:01 [6] = experiment: IEDB peptide-MHC binding, purified MHC/competitive/fluorescence; filed as Kd, often an IC50 or EC50 that approximates it; ≥ and ≤ were set here for values at or beyond the usual limits of such assays; details: source organism: Brucella abortus S19
HLA-A*26:01 [7] = experiment: IEDB peptide-MHC binding, purified MHC/competitive/radioactivity; filed as Kd, often an IC50 or EC50 that approximates it; ≥ and ≤ were set here for values at or beyond the usual limits of such assays
HLA-A*01:01 [8] = experiment: as above
HLA-B*46:01 = experiment: IEDB peptide-MHC binding, purified MHC/competitive/fluorescence; filed as Kd, often an IC50 or EC50 that approximates it; ≥ and ≤ were set here for values at or beyond the usual limits of such assays; details: source organism: Yellow fever virus
HLA-B*44:02 = experiment: IEDB peptide-MHC binding, purified MHC/competitive/radioactivity; filed as Kd, often an IC50 or EC50 that approximates it; ≥ and ≤ were set here for values at or beyond the usual limits of such assays; details: source organism: Dengue virus 2 Jamaica/1409/1983
HLA-A*02:06 = experiment: as above; details: source organism: Vaccinia virus WR
HLA-A*02:03 = experiment: as above; details: source organism: Vaccinia virus WR
HLA-A*02:02 = experiment: as above; details: source organism: Vaccinia virus WR
HLA-A*26:01 [9] = experiment: IEDB peptide-MHC binding, purified MHC/competitive/fluorescence; filed as Kd, often an IC50 or EC50 that approximates it; ≥ and ≤ were set here for values at or beyond the usual limits of such assays; details: source organism: Influenza A virus (A/Sichuan/2/1987(H3N2))
HLA-A*23:01 = experiment: IEDB peptide-MHC binding, purified MHC/competitive/radioactivity; filed as Kd, often an IC50 or EC50 that approximates it; ≥ and ≤ were set here for values at or beyond the usual limits of such assays
HLA-A*24:02 [10] = experiment: as above
HLA-B*58:01 = experiment: IEDB peptide-MHC binding, purified MHC/direct/fluorescence; filed as Kd, often an IC50 or EC50 that approximates it; ≥ and ≤ were set here for values at or beyond the usual limits of such assays; details: source organism: Mammarenavirus juninense
HLA-B*15:01 = experiment: as above; details: source organism: Mammarenavirus juninense
HLA-A*03:01 = experiment: IEDB peptide-MHC binding, purified MHC/competitive/radioactivity; filed as Kd, often an IC50 or EC50 that approximates it; ≥ and ≤ were set here for values at or beyond the usual limits of such assays; details: source organism: Dengue virus 2 Jamaica/1409/1983
HLA-A*11:01 = experiment: as above; details: source organism: Dengue virus 2 Jamaica/1409/1983
[11] = source organism: Vaccinia virus WR
[12] = source organism: Dengue virus 2 Jamaica/1409/1983
[13] = source organism: Zaire ebolavirus
[14] = source organism: Dengue virus 3 Martinique/1243/1999
[15] = source organism: Dengue virus 4 Philippines/H241/1956
[16] = source organism: Dengue virus 1 Brazil/97-11/1997
[17] = source organism: Sudan ebolavirus
[18] = source organism: Dengue virus 1 Singapore/S275/1990

KQRLTNLEK
pKd (HLA-A*30:01; [11]): 9.02

AGVLWDVPSP
pKd (HLA-A*30:01; [12]): 4.92

MRTNFLIKF
pIC50 (HLA-A*02:01 [1]; [13]): ≤ 3.17 | pIC50 (HLA-A*24:02 [2]; [13]): 5.38

SYNDYFNVL
pIC50 (HLA-A*24:02 [2]; source organism: Vaccinia virus): 7.01

VAVSFVTLI
pKd (HLA-B*51:01 [3]; [12]): 6.37

AYAQMWSLMY
pKd (HLA-A*30:02): 6.77

LAFSIMKSV
pKd (HLA-B*51:01 [3]; [14]): 6.81

LPIRYQTPAI
pKd (HLA-B*51:01 [3]; [12]): 7.16 | pKd (HLA-B*35:01; [12]): 7.28 | pKd (HLA-B*53:01; [12]): 7.87

FPVSIPITA
pKd (HLA-B*51:01 [3]; [12]): 5.43 | pKd (HLA-B*35:01; [12]): 8.77

DIKPDNILL
pKd (HLA-A*02:01 [4]; source organism: Trichodesmium erythraeum IMS101): ≤ 4.70

KSSLEVYIY
pKd (HLA-A*01:01 [5]): 6.80

EVKSCHWPK
pKd (HLA-A*30:01; [12]): 6.78 | pKd (HLA-A*68:01): 7.15 | pKd (HLA-A*33:01): 8.14

CPLVLDFII
pKd (HLA-B*51:01 [6]): 6.49

PFIRNPNKM
pIC50 (HLA-A*24:02 [2]; [11]): 7.18

VPPLPLFIF
pKd (HLA-B*51:01 [3]; [14]): 5.45

HTAITQVRNL
pKd (HLA-A*26:01 [7]; [15]): 5.64

VTYKCPLLV
pKd (HLA-A*01:01 [8]; source organism: Dengue virus 4 Dominica/814669/1981): 5.66

KVKKLNRCA
pKd (HLA-A*30:01; [11]): 8.51

RLKDYQHFV
pKd (HLA-A*30:01; [11]): 9.40

TAVDFGNSY
pKd (HLA-B*46:01): 6.93

STRVGMGEA
pKd (HLA-A*30:01; [16]): 8.30

LENLMWKQI
pKd (HLA-B*44:02): 7.65

GPLRMVLAFI
pKd (HLA-B*51:01 [3]; [15]): ≤ 4.45

GIVRQRVIP
pIC50 (HLA-A*24:02 [2]; [13]): ≤ 3.82

AIRAGYSIV
pKd (HLA-A*30:01; [11]): 8.85 | pKd (HLA-A*02:06): 5.09 | pKd (HLA-A*02:03): 9.68 | pKd (HLA-A*02:02): 5.92

YLYQPCDLL
pKd (HLA-A*02:01 [4]; [11]): 9.70

WVIILFQRT
pIC50 (HLA-A*24:02 [2]; [13]): ≤ 2.70

ITYGACPRY
pKd (HLA-A*26:01 [9]): 7.46

NYEAGEWAE
pIC50 (HLA-A*24:02 [2]; [13]): 4.87

GVDFQESAD
pIC50 (HLA-A*24:02 [2]; [13]): ≤ 3.93

ETENILTVLL
pKd (HLA-A*01:01 [8]; [14]): 5.42 | pKd (HLA-A*26:01 [7]; [14]): 4.79

DSFLLMLCL
pIC50 (HLA-A*24:02 [2]; [13]): ≤ 3.50

NYTENTSSY
pIC50 (HLA-A*24:02 [2]; [17]): 5.21

DYQGKTVWF
pKd (HLA-A*23:01; [15]): 6.09 | pKd (HLA-A*24:02 [10]; [15]): 6.12

SYTQMCDHRL
pKd (HLA-A*24:02 [10]; [16]): 6.74

MTSTRTIIL
pKd (HLA-A*30:01; [11]): 6.57 | pKd (HLA-A*02:06): 5.17 | pKd (HLA-A*02:03): 6.08 | pKd (HLA-A*02:02): 5.87

YTRVLKPSV
pKd (HLA-A*30:01; [11]): 6.13

YWVSNASGNI
pKd (HLA-A*23:01; [12]): 5.88

KLIADSIDF
pKd (HLA-B*58:01): 5.79 | pKd (HLA-B*15:01): 7.17

SVKCTHPLV
pKd (HLA-A*30:01; [11]): 9.01

CPDDQRAWNI
pKd (HLA-B*51:01 [3]; [18]): 4.74 | pKd (HLA-B*53:01; [18]): 6.92

LPLPWLPGAD
pKd (HLA-B*51:01 [3]; [12]): ≤ 4.49 | pKd (HLA-B*35:01; [12]): 5.60

KVKWLQNSV
pKd (HLA-A*30:01; source organism: Vaccinia virus Copenhagen): 9.30

YYMATLKNVT
pKd (HLA-A*24:02 [10]; [15]): 5.81

AFFLYDRLA
pIC50 (HLA-A*02:01 [1]; [17]): 4.45 | pIC50 (HLA-A*24:02 [2]; [17]): ≤ 3.82

ILPWTKISE
pIC50 (HLA-A*02:01 [1]; [11]): ≤ 3.61 | pIC50 (HLA-A*24:02 [2]; [11]): 4.48

LTSRATWAK
pKd (HLA-A*30:01; [12]): 6.75 | pKd (HLA-A*03:01): 7.23 | pKd (HLA-A*11:01): 7.35

KLGFDEIKGL
pKd (HLA-A*02:01 [4]; source organism: Variola virus): 6.87

VPLLAMGCY
pKd (HLA-B*35:01; [15]): 6.95
